{"source": "paper PMC7295030", "about": "“Aggregation pathways of human γ D crystallin induced by metal ions revealed by time dependent methods” (PeerJ, 2020)", "target": "the molecule itself", "assay": "dynamic light scattering; HγD 50 µM with 1.5 equivalents of CuSO4, 10 mM ammonium acetate pH 7.2, 50 mM NaCl, 37 °C, measured every 1.6 min during 12 h", "data": [{"protein": "Human γD crystallin (natural protein, Human γD crystallin (HγD), UniProt P07320; Only the vector pET16b is named; For NMR the protein was 15N-labelled (1H-15N HSQC); also called HγD; human gamma D crystallin; source: E. coli BL21-RIL (plasmid pET16b-HγD), purified (Q-Sepharose, Sephadex 200)) GKITLYEDRGFQGRHYECSSDHPNLQPYLSRCNSARVDSGCWMLYEQPNYSGLQYFLRRGDYADHQQWMGLSDSVRSCRLIPHSGSHRIRLYEREDYRGQMIEFTEDCSCLQDRFRFNEIHSLNVLEGSWVLYELSNYRGRQYLLMPGDYRRYQDWGATNARVGSLRRVIDFS", "values": [{"measurement": "binding result", "value": "binds"}]}]}
